Patent publication US20150361164A1 (EVEC, published 2015)
Values belong to the binder of their own block, whether it stands above or below them.

Legend:
[1] = molecular target: T1, HMGB1 C-terminal region synthetic peptide #9 EDEDEEEDDDDE; assay: dot blotting, peptide at 4 µg/spot, antibody at 1 µg/ml
T1 construct: Synthetic peptide (SIGMA-ALDRICH, PEPScreen), dotted at 4 µg/spot on nitrocellulose
T1 peptide: EDEDEEEDDDDE
Procedure: (§1) To identify the positions of amino acids where the epitope of EV007156 against HMGB1 was located from among those constituting the C-terminal end of HMGB1, peptide mapping was conducted. Namely, 9 types of 12-residue long amino acids at 3 residue intervals and the most C-terminal 8 residues, i.e., 10 peptides in total (#1. […] (SEQ ID NO: 51), #2. […] (SEQ ID NO: 52), #3. […] (SEQ ID NO: 53), #4. EEDEEEEEDEED (SEQ ID NO: 54), #5. DEEEEEDEEDED (SEQ ID NO: 55), #6. […] (SEQ ID NO: 56), #7. EEDEEDEDEEED (SEQ ID NO: 57), #8. […] (SEQ ID NO: 58), #9. […] (SEQ ID NO: 59), #10. […] (SEQ ID NO: 60)) were designed to cover all the amino acids constituting the C-terminal region of HMGB1. The peptides thus synthesized (SIGMA-ALDRICH, PEPScreen) were each dissolved at 4 mg/ml in a 0.1 M ammonium acetate solution and added dropwise at 4 μg/spot onto a nitrocellulose membrane. After drying, the membrane was blocked with 5% skimmed milk-TBST for 90 minutes. EV007156 was then reacted for 1 hour at a concentration of 1 μg/ml. Subsequently, HRP-labeled anti-human IgG antibody (MBL, #208) was reacted for 1 hour, followed by detection using ECL prime (GE Healthcare, RPN2232) (FIG. 18). […], and more particularly the most C-terminal 8 residues (#10. […] (SEQ ID NO: 60)).

[2] = molecular target: T2, HMGB1 most C-terminal 8 residues synthetic peptide #10 EEEDDDDE; assay: as above
T2 construct: Synthetic peptide (SIGMA-ALDRICH, PEPScreen), dotted at 4 µg/spot on nitrocellulose
T2 peptide: EEEDDDDE
Procedure: as §1

[3] = molecular target: T3, human-derived recombinant HMGB1 (expressed in Sf9 cells) (human, UniProt P09429 1-215, limits assumed); assay: competition ELISA, inhibition of HMGB1 binding to immobilized RAGE-Fc
T3 construct: Purified from baculovirus-infected Sf9 cells on Ni-NTA; also called Sf6-expressed recombinant human HMGB1; Sf6-derived recombinant HMGB1
T3 sequence (looked up): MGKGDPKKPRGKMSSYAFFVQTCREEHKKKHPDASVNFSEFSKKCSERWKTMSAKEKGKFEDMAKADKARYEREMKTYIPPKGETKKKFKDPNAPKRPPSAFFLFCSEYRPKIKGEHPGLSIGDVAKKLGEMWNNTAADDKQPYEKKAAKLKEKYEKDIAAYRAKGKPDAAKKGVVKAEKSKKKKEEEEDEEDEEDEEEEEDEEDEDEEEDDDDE
Procedure: RAGE-Fc (R&D, 250 ng/well) was immobilized overnight at 4° C. on immunoplates (Nunc, Maxisorp) and 5% BSA (bovine serum albumin) was added thereto to block the plates for 2 hours, followed by addition of human monoclonal antibody (Control Ig) to block the plates for 2 hours. HMGB1 (Sf6-derived recombinant HMGB1, final concentration: 2 μg/ml) was mixed with anti-HMGB1 antibody (#10-22 chimera, EV007156 or G4) or non-HMGB1-specific human monoclonal antibody (Control Ig) serving as a negative control antibody at a final concentration of 0, 0.02, 0.2, 2 or 20 μg/ml and incubated for 60 minutes. Subsequently, the reaction solutions were added to the immunoplates and reacted for 2 hours. Then, anti-HMGB1 antibody (Abnova, #H00003146-M08, 1 μg/ml) which had been biotinylated with a Biotin Labeling Kit (Dojindo, LK03) was reacted at room temperature for 1 hour. Finally, HRP-labeled streptavidin was reacted at room temperature for 1 hour. TMB (3,3′,5,5′-tetramethylbenzidine; SureBlue, KPL, #52-00-03) was added and HMGB1 bound to RAGE was detected by absorbance at 450 nm (FIG. 10). #10-22 chimera, EV007156 and G4 were all found to inhibit the binding of HMGB1 to RAGE in a manner dependent on the added antibody concentration.

- binding result [1]: binds
- binding result [2]: binds
B1: #10-22 humanized antibody EV007156 (antibody, human IgG1, lambda, V domains shown)
VH: EVQLVESGGGLVQPGGSLKLSCAASGFTFSNAAMYWVRQASGKGLEWVARIRTKPNNYATYYADSVKGRFTISRDDSKNTAYLQMNSLKTEDTAVYYCTAPRRTEGIVSSGVDYWGQGTLVTVSS
VL: YELTQPPSVSVSPGQTASITCSGDELPKRYAYWYQQKPGQSIVRVIYKDSERPSGIPERFSGSSSGTTATLTISGTQAEDEADYYCHSTYSDDKLPVFGGGTKLTVLG
notes: also called EV007156H + EV007156L

- IC50 [3]: 3.04 µg/mL
B2: #10-22 chimeric antibody (antibody, human IgG1, lambda)
heavy: not shown
light: YELIQPPSASVTLGNTVSITCSGDELPKRYAYWYQQKPDKSIVRVIYKDSERPSGISDRFSGSSSGTTATLTIRDTQAEDEADYYCHSTYSDDKLPVFGGGTKLTVLGQPKAAPSVTLFPPSSEELQANKATLVCLISDFYPGAVTVAWKADSSPVKAGVETTTPSKQSNNKYAASSYLSLTPEQWKSHRSYSCQVTHEGSTVEKTVAPTECS
notes: Rat #10-22 variable regions with human IgG1(lambda) constant regions; also called #10-22 chimera
